The results in this text go back to PMC4624681 (2015).

Positions count from the first letter of the chain named.

Sequences and labels used below:
T1: Zaire GP (1–320) with a His tag (Ebolavirus, Zaire strain, UniProt Q05320 33-320)
T1 chain: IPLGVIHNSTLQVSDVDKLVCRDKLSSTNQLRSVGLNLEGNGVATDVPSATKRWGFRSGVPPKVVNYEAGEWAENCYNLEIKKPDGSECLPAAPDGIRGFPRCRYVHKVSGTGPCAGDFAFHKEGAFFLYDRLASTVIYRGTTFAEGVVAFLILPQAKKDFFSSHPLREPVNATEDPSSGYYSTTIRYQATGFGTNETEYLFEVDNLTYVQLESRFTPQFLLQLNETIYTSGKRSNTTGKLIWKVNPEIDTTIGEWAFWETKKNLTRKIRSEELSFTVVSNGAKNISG

B1: T41 (CC’-FG) chimera: hTIM-4 Ig V with the CC’ and FG loops of hTIM-1 (domain or fragment)
chain: VTSETVVTEVLGHRVTLPCLYSSWSHNSNSMCWNRGSCSLFTCKEALIRTDGMRVTSRKSAKYRLQGTIPRGDVSLTILNPSESDSGVYCCRIEHRGWFNDVKINVRLNLQRASTT
B2: T41 (BC-CC’-FG) chimera: hTIM-4 Ig V with the BC, CC’ and FG loops of hTIM-1 (domain or fragment)
chain: VTSETVVTEVLGHRVTLPCLYSGAVTSMCWNRGSCSLFTCKEALIRTDGMRVTSRKSAKYRLQGTIPRGDVSLTILNPSESDSGVYCCRIEHRGWFNDVKINVRLNLQRASTT
B3: T41 (BC-CC’) chimera: hTIM-4 Ig V with the BC and CC’ loops of hTIM-1 (domain or fragment)
chain: B2 chain with H92V, R93P
B4: T14 (FG) chimera: hTIM-1 Ig V with the FG loop of hTIM-4 (domain or fragment)
chain: VKVGGEAGPSVTLPCHYSGAVTSMCWNRGSCSLFTCQNGIVWTNGTHVTYRKDTRYKLLGDLSRRDVSLTIENTAVSDSGVYCCRVEVPGWFNDMKITVSLEIVPPKV

This experiment concerns the target T1, Zaire GP (1–320) with a His tag. Description: SPR. Background: Surface plasmon resonance follows binding to a sensor surface in real time, without labels.
For the molecule B1, the Kd – broadly, the concentration at which binding is half-saturated – was 208 µM.

With B2, the affinity, expressed as Kd, was 72.4 µM.

As to B3, binding was put at a Kd of 73.2 µM.

B4 registered an equilibrium dissociation constant (Kd) of 57.9 µM.
